Assay results: PMC11396700, “Synthesis and Biological Activity of Homohypotaurine Obtained by the Enzyme-Based Conversion of Homocysteine Sulfinic Acid Using Recombinant Escherichia Coli Glutamate Decarboxylase” (Molecules, 2024)

B1: EcGadB (Escherichia coli K-12) (protein)
chain: MDKKQVTDLRSELLDSRFGAKSISTIAESKRFPLHEMRDDVAFQIINDELYLDGNARQNLATFCQTWDDENVHKLMDLSINKNWIDKEEYPQSAAIDLRCVNMVADLWHAPAPKNGQAVGTNTIGSSEACMLGGMAMKWRWRKRMEAAGKPTDKPNLVCGPVQICWHKFARYWDVELREIPMRPGQLFMDPKRMIEACDENTIGVVPTFGVTYTGNYEFPQPLHDALDKFQADTGIDIDMHIDAASGGFLAPFVAPDIVWDFRLPRVKSISASGHKFGLAPLGCGWVIWRDEEALPQELVFNVDYLGGQIGTFAINFSRPAGQVIAQYYEFLRLGREGYTKVQNASYQVAAYLADEIAKLGPYEFICTGRPDEGIPAVCFKLKDGEDPGYTLYDLSERLRLRGWQVPAFTLGGEATDIVVMRIMCRRGFEMDFAELLLEDYKASLKYLSDHPKLQGIAQQNSFKHT
notes: recombinant, purified full-length enzyme, prepared by earlier published protocol; PLP enzyme

Legend:
EcGadB = biological target: T1, EcGadB (Escherichia coli, UniProt P69910); assay: decarboxylation; GABA quantified by end-point GABase assay (NADPH at […] nm), Michaelis-Menten fit; format: biochemical; conditions: pyridine/HCl 0.2 M (0.1 M in Figure 2 legend), pH 4.6, 37 °C, 1 mM PLP, 0.1 mM DTT; 0.15-10 mM substrate
T1 construct: gene gadB; recombinant, purified full-length enzyme, prepared by earlier published protocol; PLP enzyme
T1 sequence (P69910 1-466): B1 chain

purified protein = substrate: N[C@@H](CCS(=O)O)C(=O)O; assay: purified protein; format: biochemical, Escherichia coli; conditions: pyridine/HCl 0.2 M (0.1 M in Figure 2 legend), pH 4.6, 37 °C, 1 mM PLP, 0.1 mM DTT, 3-300 mM substrate

| Molecule | Km (EcGadB) [µM] | Km (purified protein) [µM] | kcat (purified protein) [s⁻¹] | kcat/Km (purified protein) [M⁻¹ s⁻¹] |
| --- | --- | --- | --- | --- |
| N[C@@H](CCC(=O)O)C(=O)O [L-Glu, L-Glutamic acid] | 840 ± 90 |  |  |  |
| B1 |  | 38240 ± 3450 | 33.9 ± 1.07 | 890 ± 90 |
